Like-named read-outs stand apart in the source and are kept apart here.
T1: HKU1 spike protein (HCoV-HKU1)
T1 chain: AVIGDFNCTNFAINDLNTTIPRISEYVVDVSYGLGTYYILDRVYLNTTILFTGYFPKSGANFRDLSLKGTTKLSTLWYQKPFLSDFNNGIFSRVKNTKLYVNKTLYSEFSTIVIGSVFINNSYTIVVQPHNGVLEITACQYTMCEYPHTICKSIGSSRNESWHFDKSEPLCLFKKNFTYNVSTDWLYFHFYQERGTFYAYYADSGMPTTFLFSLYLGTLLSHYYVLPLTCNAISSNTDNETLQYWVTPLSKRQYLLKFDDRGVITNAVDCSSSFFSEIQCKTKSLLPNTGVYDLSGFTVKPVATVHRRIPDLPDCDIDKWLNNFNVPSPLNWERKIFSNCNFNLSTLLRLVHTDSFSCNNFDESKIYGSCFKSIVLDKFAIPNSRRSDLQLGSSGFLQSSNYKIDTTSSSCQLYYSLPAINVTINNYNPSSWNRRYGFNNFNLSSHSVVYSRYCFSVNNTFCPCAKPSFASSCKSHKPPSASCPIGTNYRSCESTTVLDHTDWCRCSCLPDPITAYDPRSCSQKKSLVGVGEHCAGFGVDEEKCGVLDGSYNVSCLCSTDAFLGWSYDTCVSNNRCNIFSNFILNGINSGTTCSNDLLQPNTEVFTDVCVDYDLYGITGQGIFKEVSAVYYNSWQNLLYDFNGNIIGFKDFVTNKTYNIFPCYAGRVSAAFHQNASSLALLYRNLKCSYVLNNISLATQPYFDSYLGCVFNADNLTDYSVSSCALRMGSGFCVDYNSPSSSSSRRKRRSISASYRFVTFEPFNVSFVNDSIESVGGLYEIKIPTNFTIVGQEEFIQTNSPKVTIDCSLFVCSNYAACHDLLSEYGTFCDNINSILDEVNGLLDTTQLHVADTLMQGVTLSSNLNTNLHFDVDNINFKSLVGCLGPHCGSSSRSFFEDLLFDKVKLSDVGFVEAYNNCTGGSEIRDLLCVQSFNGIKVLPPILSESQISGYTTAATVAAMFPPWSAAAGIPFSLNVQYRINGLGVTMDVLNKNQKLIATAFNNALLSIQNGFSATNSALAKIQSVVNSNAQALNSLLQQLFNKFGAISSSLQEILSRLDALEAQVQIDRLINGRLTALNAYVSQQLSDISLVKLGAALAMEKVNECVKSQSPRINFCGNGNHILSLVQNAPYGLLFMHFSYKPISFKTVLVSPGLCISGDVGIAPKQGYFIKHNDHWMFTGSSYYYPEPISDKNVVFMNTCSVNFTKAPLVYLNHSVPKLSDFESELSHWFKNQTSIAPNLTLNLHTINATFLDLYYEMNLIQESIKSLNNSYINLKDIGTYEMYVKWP

T2: MERS spike protein (MERS-CoV, UniProt K9N5Q8 18-1296)
T2 chain: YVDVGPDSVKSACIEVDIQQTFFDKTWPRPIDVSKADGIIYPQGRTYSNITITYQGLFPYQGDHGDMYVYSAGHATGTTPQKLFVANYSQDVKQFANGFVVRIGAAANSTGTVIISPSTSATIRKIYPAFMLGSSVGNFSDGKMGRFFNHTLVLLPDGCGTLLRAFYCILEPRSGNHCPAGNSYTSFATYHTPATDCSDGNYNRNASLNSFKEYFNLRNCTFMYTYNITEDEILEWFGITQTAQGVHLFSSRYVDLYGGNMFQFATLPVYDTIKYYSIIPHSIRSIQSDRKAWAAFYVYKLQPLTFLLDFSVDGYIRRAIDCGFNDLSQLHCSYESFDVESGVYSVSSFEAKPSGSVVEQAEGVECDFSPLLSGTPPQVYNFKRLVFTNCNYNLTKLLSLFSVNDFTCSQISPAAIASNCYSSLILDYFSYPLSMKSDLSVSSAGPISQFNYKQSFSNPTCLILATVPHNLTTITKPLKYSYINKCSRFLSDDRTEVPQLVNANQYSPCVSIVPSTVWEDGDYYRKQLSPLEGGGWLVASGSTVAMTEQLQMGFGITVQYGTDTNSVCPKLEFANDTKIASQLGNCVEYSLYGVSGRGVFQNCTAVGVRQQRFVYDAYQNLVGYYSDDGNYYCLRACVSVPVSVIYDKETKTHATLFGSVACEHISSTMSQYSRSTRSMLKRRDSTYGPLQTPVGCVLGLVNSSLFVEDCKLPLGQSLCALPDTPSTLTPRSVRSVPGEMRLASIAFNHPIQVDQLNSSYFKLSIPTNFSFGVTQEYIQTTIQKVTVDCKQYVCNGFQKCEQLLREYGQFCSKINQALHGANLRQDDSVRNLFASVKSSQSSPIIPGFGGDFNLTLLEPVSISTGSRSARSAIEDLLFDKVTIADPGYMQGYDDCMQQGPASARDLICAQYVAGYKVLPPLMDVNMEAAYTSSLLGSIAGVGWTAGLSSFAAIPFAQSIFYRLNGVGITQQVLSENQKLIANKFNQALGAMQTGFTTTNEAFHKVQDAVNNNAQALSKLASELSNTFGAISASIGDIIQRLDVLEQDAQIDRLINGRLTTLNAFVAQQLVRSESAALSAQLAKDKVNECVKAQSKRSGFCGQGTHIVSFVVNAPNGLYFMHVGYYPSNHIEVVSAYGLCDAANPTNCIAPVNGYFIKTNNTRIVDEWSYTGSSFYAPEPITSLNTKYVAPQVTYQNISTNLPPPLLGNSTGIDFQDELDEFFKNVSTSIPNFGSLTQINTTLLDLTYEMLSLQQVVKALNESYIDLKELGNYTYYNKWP


Legend:
Test in all cases: ELISA
[1] = target: T1, HKU1 spike protein
[2] = target: SARS-CoV-2 receptor binding domain (UniProt P0DTC2 319-541)
[3] = target: T3, SARS-CoV-2 prefusion stabilized trimer protein (WIV02 isolate spike protein) (UniProt P0DTC2 14-1213)
[4] = target: SARS-CoV-2 S2 domain (UniProt P0DTC2 686-1213)
[5] = target: SARS-CoV-1 spike protein (SARS-CoV-1, UniProt P59594 14-1195)
[6] = target: T2, MERS spike protein
[7] = target: T3, SARS-CoV-2 prefusion stabilized trimer …; remark: listed apart in the source

Row | Binder | EC50 [1] [nM] | EC50 [2] [nM] | EC50 [3] [nM] | EC50 [4] [nM] | EC50 [5] [nM] | EC50 [6] [nM] | EC50 [7] [nM]
1 | 4-N22-A (antibody, V domains shown) VH: QVQLQQPGTELVKPGASVKLSCKASGYTFTNYWMYWVKQRPGQGLDWIGNINPSNGGTNYNEKFKSKATLTVDKSSSTAYMQLSSLTSEDSAVYYCARETGNYWGQGTTLTVSS VL: DILMTQSPSSMSVSLGDTVSISCHASQGISSNIGWLQQKPGKSFKGLIYHGTNLEDGVPSRFSGSGSGADYSLTISSLESEDFADYYCVQYAQFPYTFGGGTKLEIK | 15.8 | 0.21 | 17.8 |  |  |  | 
2 | 10-B11-A (antibody, V domains shown) VH: QVQLQQPGAELVKPGASVKVSCKASGYTFTSYWMHWVKQRPGQGLEWIGRIHPSDSDTNYYQKFKGKATLSVDKSSSTAYMQLSSLTSEDSAVYYCAIPLYSYDNSGGYYPMDYWGQGTSVTVSS VL: DIVMTQSQKFMSTSVGDRVTITCKASQNVRTAVAWYQQKPGQSPKKLIYLASNRHTGVPDRFTGSGSGTDFTLAISNVQSEDLADYFCLQHWNYPFTFGSGTRLEIK | > 200 |  |  | 1.13 | 20.8 | > 200 | 
3 | 2-P2-A (antibody, V domains shown) VH: EVQLQQSGAELVRPGSSVKMSCKTSGYTFTSYGINWVKQRPGQGLEWIGYIYIGNGYTEYNEKFKGKATLTSDTSSSTAYMQLSSLTSEDSAIYFCARGGVDYWGQGTTLTVSS VL: DVLMTQTPLSLPVSLGDQASISCRSSQSIVHSNGNTYLEWYLQKPGQSPKLLIYKVSNRFSGVPDRFSGSGSGTDFTLKISRVEAEDLGVYYCFQGSHVPYTFGGGTKLEIK |  | 89.5 | 0.13 | 0.07 | 0.19 |  | 0.12
4 | 2-J9-A (antibody, V domains shown) VH: EVQLQQSGPELVKPGASVKMSCKASGYTFTDYNIHWVKQSHGKSLEWIGYINPNNGGTDYNQKFQGKATLTVNKSSSTAYMELRSLTSEDSAVYYCARGGFYGNYGAYYGMDFWGQGTSVTVSS VL: DIQMTQSPASLSASVGETVTITCRTSENIYSHLAWYQQTQGKSPQLLVYNTKTLAEGVPSRFTGSGSGTQFSLKINSLQPEDFGSYYCQHHYGIPPEFGGGTKLEIK |  |  | 0.08 | 0.05 | 0.17 | 1.83 | 0.11

Reference: patent publication US20240239875A1 (published 2024)
